The results in this text go back to US20180371107A1 (published 2018).

Substitutions are numbered along the chain they refer to. Where only a bound is given, the exact number is not on record here.

For assay [1], the target named is T1, mouse NSP4 (mNSP4), form not stated in Example 6 (mouse, UniProt Q14B24 40-284, limits assumed).
T1 construct: also called recombinant mouse NSP4; purified mouse NSP4
T1 sequence (looked up): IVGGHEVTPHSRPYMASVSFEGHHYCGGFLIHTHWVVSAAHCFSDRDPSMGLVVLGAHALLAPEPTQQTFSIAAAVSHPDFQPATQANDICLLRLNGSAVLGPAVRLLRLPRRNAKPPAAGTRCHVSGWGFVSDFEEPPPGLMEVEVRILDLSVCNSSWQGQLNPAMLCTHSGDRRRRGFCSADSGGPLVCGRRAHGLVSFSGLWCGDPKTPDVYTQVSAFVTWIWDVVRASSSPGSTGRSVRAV
Briefly: ratio of phage IC50 against the parental clone 51.WT.

Assay [2] addresses T1, mouse NSP4 (mNSP4), form not stated in …. Briefly: phage competition binding assay (phage IC50), soluble mNSP4 competitor.
Assay [3] deals with T2, mouse active NSP4 (mA-NSP4) (mouse, UniProt Q14B24 40-284).
T2 chain: T1 sequence (looked up)
Description: BLI; no affinity.

Assay [4] deals with T3, mouse zymogen NSP4 (mZ-NSP4) (mouse, UniProt Q14B24 36-284).
T3 chain: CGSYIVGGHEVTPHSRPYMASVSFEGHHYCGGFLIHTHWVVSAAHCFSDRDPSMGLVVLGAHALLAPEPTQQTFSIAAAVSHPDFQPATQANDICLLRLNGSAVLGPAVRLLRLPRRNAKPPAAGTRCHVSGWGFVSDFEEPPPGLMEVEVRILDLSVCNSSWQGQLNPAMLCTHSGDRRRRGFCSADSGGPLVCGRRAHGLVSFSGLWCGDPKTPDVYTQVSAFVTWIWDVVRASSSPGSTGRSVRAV
Briefly: BLI; no affinity.

Assay [5] deals with T4, human active NSP4 (hA-NSP4) (human, UniProt Q6UWY2 34-283).
T4 construct: range 34-283; Insect-cell material of the same construct was used for the crystal structures; also called mature form of human NSP4
T4 sequence (looked up): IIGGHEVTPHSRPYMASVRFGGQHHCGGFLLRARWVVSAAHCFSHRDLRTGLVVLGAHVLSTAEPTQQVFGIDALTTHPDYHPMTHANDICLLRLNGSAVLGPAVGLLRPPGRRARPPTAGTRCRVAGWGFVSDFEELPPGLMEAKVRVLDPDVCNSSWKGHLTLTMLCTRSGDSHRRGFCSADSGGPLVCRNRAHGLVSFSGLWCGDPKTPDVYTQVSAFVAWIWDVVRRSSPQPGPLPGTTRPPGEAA
Description: competition phage ELISA (phage IC50): phage clone preincubated with soluble hA-NSP4, then on NSP4-coated wells. (In an ELISA, binding on a coated surface is turned into a signal by an enzyme label.)

Assay [6] addresses T1, mouse NSP4 (mNSP4), form not stated in …. Briefly: ratio of phage IC50 against the parental clone 35.WT.
Assay [7] has as its target T5, human NSP4 (hNSP4), form not stated in Example 6 (human, UniProt Q6UWY2 34-283, limits assumed).
T5 sequence (looked up): T4 sequence (looked up)
Description: phage competition binding assay (phage IC50), soluble hNSP4 competitor.

The target of assay [8] is T6, mouse active NSP4 (mA-NSP4) (mouse, UniProt Q14B24 40-284).
T6 construct: mature; Made from mZ by enteropeptidase cleavage; also called mature form of mouse NSP4
T6 sequence (looked up): T1 sequence (looked up)
Description: competition phage ELISA (phage IC50): phage clone preincubated with soluble mA-NSP4, then on NSP4-coated wells.
Description: Phage at sub-saturating concentrations were first incubated with increasing concentrations of target NSP4 antigen (either hZ, hA, mZ, or mA) for 1 to 2 hour(s), and then transferred to wells coated with the same NSP4 antigen to capture the unbound phage.
Briefly, 2 ug/ml of NSP4 (hZ, hA, mZ, or mA variants) was coated on wells overnight at 4° C. in PBS supplemented with 0.5% BSA. Each individual phage clone (at 0.01 OD/ml) was purified and incubated with increasing concentrations of soluble NSP4 protein for 2 h at room temperature before being placed into wells coated with immobilized NSP4 protein for 15 min at room temperature. The wells were then washed with PBS supplemented with 0.05% Tween-20 for 10 times and developed using anti-M13 phage antibody conjugated with HRP (New England Biolabs). […] The soluble phage:antigen complex, with higher likelihood to be high-affinity phage clones, would thus be removed through successive washing steps, resulting in lower A450 signal at any given concentration of soluble antigen. Consequently, higher affinity phage clones would have a lower phage IC50 value, with a concomitant leftward-shift in the binding curves, compared to lower affinity phage clones.

B1: affinity matured anti-NSP4 antibody clone 51.72 (Fab, V domains shown)
VH: EVQLVESGGGLVQPGGSLRLSCAASGFTFSGSGIHWVRQAPGKGLEWVAWISPTGGNTYYADSVKGRFTISADTSKNTAYLQMNSLRAEDTAVYYCAKSLFHNVAFDYWGQGTLVTVSS
VL: DIQMTQSPSSLSASVGDRVTITCRASQDVSTAVAWYQQKPGKAPKLLIYSASFLYSGVPSRFSGSGSGTDFTLTISSLQPEDFATYYCQQSYTAPPTFGQGTKVEIKR
For orientation: IC50 means the concentration that gives 50% inhibition. High values mean weaker potency in that assay, low ones greater potency in that assay. As for B1, in assay [1], the “Affinity improvement to mNSP4” value is 49.8 fold. This molecule yielded an IC50 in assay [2] of 0.375 nM.

B2: anti-NSP4 antibody 1-5 (antibody, V domains shown)
VH: EVQLVESGGGLVQPGGSLRLSCAASGFTFTNNSISWVRQAPGKGLEWVGAISPNNGSTYYADSVKGRFTISADTSKNTAYLQMNSLRAEDTAVYYCARNAWHYSWVGVMDYWGQGTLVTVSS
VL: B1 VL with A94T
What is called Kd is the equilibrium constant for the complex coming apart. For the molecule B2, the Kd in assay [3] and in assay [4] was more than 1000 nM each time.

B3: anti-NSP4 antibody 4-4 (antibody, V domains shown)
VH: EVQLVESGGGLVQPGGSLRLSCAASGFTFTSTSIHWVRQAPGKGLEWVAEITPHGGYTNYADSVKGRFTISADTSKNTAYLQMNSLRAEDTAVYYCARGRTKWGWLYGMDYWGQGTLVTVSS
VL: B1 VL with A94T
In the case of B3, the Kd in assay [3] and in assay [4] was more than 1000 nM each time. Also, the IC50 in assay [5] is 1.48 nM.

B4: anti-NSP4 antibody 2-5 (antibody, V domains shown)
VH: EVQLVESGGGLVQPGGSLRLSCAASGFTFTGYGISWVRQAPGKGLEWVGWIYPASGATYYADSVKGRFTISADTSKNTAYLQMNSLRAEDTAVYYCARHRAFDWYPYYIGSSVMDYWGQGTLVTVSS
VL: B1 VL with A94T
B4 showed a Kd in assay [3] of more than 1000 nM. This molecule displayed an IC50 in assay [5] of 5130 nM.

B5: anti-NSP4 antibody 1-1 (antibody, V domains shown)
VH: EVQLVESGGGLVQPGGSLRLSCAASGFTFSGSWISWVRQAPGKGLEWVGTISPYNGSTYYADSVKGRFTISADTSKNTAYLQMNSLRAEDTAVYYCARVLRPKVYASVMDYWGQGTLVTVSS
VL: B1 VL with A94T
For the molecule B5, the Kd in assay [3] and in assay [4] was more than 1000 nM throughout.

B6: anti-NSP4 antibody 2-2 (antibody, V domains shown)
VH: EVQLVESGGGLVQPGGSLRLSCAASGFTFSSTAISWVRQAPGKGLEWVGEIYPSDGYTDYADSVKGRFTISADTSKNTAYLQMNSLRAEDTAVYYCARVKWAVSSLGVMDYWGQGTLVTVSS
VL: B1 VL with A94T
In assay [3], B6 showed a Kd of more than 1000 nM. The molecule further registered an IC50 in assay [5] of 10.1 nM.

B7: affinity matured anti-NSP4 antibody clone 35.14 (Fab, V domains shown)
VH: EVQLVESGGGLVQPGGSLRLSCAASGFTFSDNDISWVRQAPGKGLEWVGSISPDNGDTNYADSVKGRFTISADTSKNTAYLQMNSLRAEDTAVYYCARDDVPAVFTSAMDYWGQGTLVTVSS
VL: B1 VL with T93G, A94F, P96L
On to B7, for which, in assay [6], the “Affinity improvement to mNSP4” value is 2.7 fold. Moreover, the IC50 was 23.4 nM in assay [7] and 0.048 nM in assay [2].

B8: anti-NSP4 antibody 2-1 (antibody, V domains shown)
VH: EVQLVESGGGLVQPGGSLRLSCAASGFTFTDYSIHWVRQAPGKGLEWVAEIYPYSGDTYYADSVKGRFTISADTSKNTAYLQMNSLRAEDTAVYYCARDGDGWFDWAMDYWGQGTLVTVSS
VL: B1 VL with A94T
The molecule B8 came in with an IC50 in assay [5] of 3.81 nM.

B9: anti-NSP4 antibody 1-2 (antibody, V domains shown)
VH: EVQLVESGGGLVQPGGSLRLSCAASGFTFSGYSIHWVRQAPGKGLEWVAGISPTNGYTDYADSVKGRFTISADTSKNTAYLQMNSLRAEDTAVYYCARLVFYRGVMDYWGQGTLVTVSS
VL: B1 VL with A94T
For the molecule B9, the Kd in assay [3] and in assay [4] was more than 1000 nM in each case.

B10: anti-NSP4 antibody 2-4 (antibody, V domains shown)
VH: EVQLVESGGGLVQPGGSLRLSCAASGFTFSDYWISWVRQAPGKGLEWVAGISPNNGDTYYADSVKGRFTISADTSKNTAYLQMNSLRAEDTAVYYCAREDDDERDYAMDYWGQGTLVTVSS
VL: B1 VL with A94T
B10: the IC50 in assay [5] came out at 1.63 nM. That is a single-digit nanomolar value.

B11: anti-NSP4 antibody 4-3 (antibody, V domains shown)
VH: EVQLVESGGGLVQPGGSLRLSCAASGFTFSSYDISWVRQAPGKGLEWVGTISPYDGYTDYADSVKGRFTISADTSKNTAYLQMNSLRAEDTAVYYCARYIRRYSVHYGMDYWGQGTLVTVSS
VL: B1 VL with A94T
B11: the Kd in assay [3] and in assay [4] was more than 1000 nM each time.

B12: anti-NSP4 antibody 5-2 (antibody, human IgG1, V domains shown)
VH: EVQLVESGGGLVQPGGSLRLSCAASGFTFSNTYISWVRQAPGKGLEWVGFIYPANGATYYADSVKGRFTISADTSKNTAYLQMNSLRAEDTAVYYCARRYRLSFDYWGQGTLVTVSS
VL: B1 VL with A94T
notes: also called Ab 5-2
In assay [8], B12 came in with an IC50 of 25 nM.

B13: anti-NSP4 antibody 1-3 (antibody, V domains shown)
VH: EVQLVESGGGLVQPGGSLRLSCAASGFTFSDNWISWVRQAPGKGLEWVGYIYPASGYTDYADSVKGRFTISADTSKNTAYLQMNSLRAEDTAVYYCASDSPHAYWYAMDYWGQGTLVTVSS
VL: B1 VL with A94T
On to B13, for which the Kd in assay [3] and in assay [4] was more than 1000 nM in each case.

B14: anti-NSP4 antibody 4-2 (antibody, V domains shown)
VH: EVQLVESGGGLVQPGGSLRLSCAASGFTFSGSDISWVRQAPGKGLEWVGEIYPSNGDTYYADSVKGRFTISADTSKNTAYLQMNSLRAEDTAVYYCARSVRPSWWAMDYWGQGTLVTVSS
VL: B1 VL with A94T
On to B14, for which the Kd in assay [3] and in assay [4] was more than 1000 nM each time. The molecule also gave an IC50 in assay [5] of 84.8 nM.

B15: anti-NSP4 antibody 2-3 (antibody, V domains shown)
VH: EVQLVESGGGLVQPGGSLRLSCAASGFTFTDSDISWVRQAPGKGLEWVAWISPSDGATDYADSVKGRFTISADTSKNTAYLQMNSLRAEDTAVYYCAHEASDDDYAIDYWGQGTLVTVSS
VL: B1 VL with A94T
In assay [5], B15 registered an IC50 of 4.96 nM.

B16: affinity matured anti-NSP4 antibody clone 51.82 (Fab, V domains shown)
VH: B1 VH with K98R, S99G
VL: B1 VL with S91T, T93N
For the molecule B16, the “Affinity improvement to mNSP4” value in assay [1] came to 505 fold. In assay [2], this molecule came in with an IC50 of 0.037 nM.

B17: affinity matured anti-NSP4 antibody clone 35.77 (Fab, V domains shown)
VH: B1 VH with S99R, L100H, F101L
VL: B1 VL with S91A, T93S
As to B17, the “Affinity improvement to mNSP4” value in assay [6] came out at 2 fold. The molecule also showed an IC50 in assay [2] of 0.064 nM.

B18: affinity matured anti-NSP4 antibody clone 35.50 (Fab, V domains shown)
VH: B7 VH
VL: B1 VL with T93D, A94F, P96L
With B18, the “Affinity improvement to mNSP4” value in assay [6] was found to be 1.7 fold. In addition, the IC50 turned out to be 22.8 nM in assay [7] and 0.075 nM in assay [2].

B19: affinity matured anti-NSP4 antibody clone 51.50 (Fab, V domains shown)
VH: B1 VH
VL: B1 VL with S91A, Y92N, T93S, A94T
For the molecule B19, the “Affinity improvement to mNSP4” value in assay [1] stood at 178 fold. The same molecule displayed an IC50 in assay [2] of 0.105 nM.

B20: affinity matured anti-NSP4 antibody clone 51.30 (Fab, V domains shown)
VH: B1 VH with S52P, P53T, T54A
VL: B1 VL
On to B20, for which, in assay [1], the “Affinity improvement to mNSP4” value worked out at 161 fold. Further, the IC50 in assay [2] worked out at 0.116 nM.

B21: affinity matured anti-NSP4 antibody clone 51.51 (Fab, V domains shown)
VH: B1 VH with K98R, S99G
VL: B1 VL
Consider B21, for which the “Affinity improvement to mNSP4” value in assay [1] was 63 fold. The same molecule showed a half-inhibitory concentration (IC50) in assay [2] of 0.296 nM.
